From patent US20210324099A1 (Chugai, published 2021)
Each block holds one binder with its values, some of them ahead of it.

Legend:
mPD1-G1CH2 [1] = target: T1, mPD1-G1CH2 (mouse); experiment: competition ELISA: mPD1-G1CH2 coated on the plate, mPDL1-G1dCH2His (55 nM) as the blocked ligand; 1, 10 and 100 uM ATP (curves overlap)
T1 construct: Whole entry named; also called Fc-fused murine PD1

hIL6R [2] = target: T2, hIL6R (human, UniProt P08887 20-357); experiment: SPR 37C, mean; ATP 10 uM
T2 construct: Purified from culture supernatant of a CHO line; whole entry named; also called human interleukin 6 receptor (purified antigen from hIL6R-CHO supernatant)
T2 sequence: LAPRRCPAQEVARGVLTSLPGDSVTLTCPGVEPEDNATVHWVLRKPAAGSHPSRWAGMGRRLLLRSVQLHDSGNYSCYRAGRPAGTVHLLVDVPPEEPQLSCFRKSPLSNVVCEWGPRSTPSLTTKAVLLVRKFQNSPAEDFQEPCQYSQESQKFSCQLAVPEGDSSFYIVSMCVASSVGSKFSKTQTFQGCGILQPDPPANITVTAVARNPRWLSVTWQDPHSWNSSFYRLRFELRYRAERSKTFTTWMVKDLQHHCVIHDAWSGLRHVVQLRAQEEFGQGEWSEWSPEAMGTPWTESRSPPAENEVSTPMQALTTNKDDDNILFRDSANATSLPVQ

hIL6R [3] = target: T2, hIL6R; experiment: SPR 37C; AMP 10 uM
hIL6R [4] = target: T2, hIL6R; experiment: SPR 37C, mean; ATP 100 uM
hIL6R [5] = target: T2, hIL6R; experiment: SPR 37C, mean; ATP 1 uM
hIL6R [6] = target: T2, hIL6R; experiment: SPR 37C, mean; ATP 0 uM
hIL6R [7] = target: T2, hIL6R; experiment: SPR 37C; AMP 100 uM
hIL6R [8] = target: T2, hIL6R; experiment: SPR 37C; ADP 10 uM
hIL6R [9] = target: T2, hIL6R; experiment: SPR 37C; ADP 100 uM
mPD1-G1CH2 [10] = target: T1, mPD1-G1CH2; experiment: competition ELISA: mPD1-G1CH2 coated on the plate, mPDL1-G1dCH2His (55 nM) as the blocked ligand; 0, 1, 10 and 100 uM ATP (curves overlap)
mPD1-G1CH2 [11] = target: T1, mPD1-G1CH2; experiment: as above; remark: listed apart in the source
hIL6R [12] = target: T2, hIL6R; experiment: SPR 37C, mean; ATP 100 uM; ATP 100 uM; mean
hIL6R [13] = target: T2, hIL6R; experiment: SPR 37C; ADP 10 uM; ADP 10 uM
hIL6R [14] = target: T2, hIL6R; experiment: SPR 37C, mean; ATP 10 uM; ATP 10 uM; mean
hIL6R [15] = target: T2, hIL6R; experiment: SPR 37C; ADP 100 uM; ADP 100 uM
hIL6R [16] = target: T2, hIL6R; experiment: SPR 37C, mean; ATP 1 uM; ATP 1 uM; mean
hCD137.2.4-F.G1d = target: T3, hCD137.2.4-F.G1d (human); experiment: ELISA; 500 uM kynurenine, Ab 10 ug/mL
T3 construct: Portion of the human CD137 extracellular region linked to an antibody constant region

hCD137.3.4-F.G1d = target: T4, hCD137.3.4-F.G1d (human); experiment: ELISA; 500 uM kynurenine, Ab 10 ug/mL
T4 construct: Portion of the human CD137 extracellular region linked to an antibody constant region

hCD137.2.3-F.G1d = target: T5, hCD137.2.3-F.G1d (human); experiment: ELISA; 500 uM kynurenine, Ab 10 ug/mL
T5 construct: Portion of the human CD137 extracellular region linked to an antibody constant region

[17] = target: T6, Biotinylated Fc-fused monkey CD137 (monkey, biotin on the AviTag); experiment: ELISA; 500 uM kynurenine, Ab 10 ug/mL
T6 construct: Monkey CD137 extracellular region, antibody constant region and Avitag; whole entry named; also called cyCD137-Fc-BAP

B1: H5041-mFa31/L3023-ml0 (antibody, mouse IgG2a, V domains shown)
VH: EVQLVESGGGLVKPGGSLRLSCAASGFTFNTYTMHWVRQAPGKGLEWVSSISSSSKHIYYADSVKGRFTISRDNAKNSLYLQMNSLRAEDTAVYYCARYGRPWELLWVLDYWGQGTLVTVSS
VL: QSALTQPPSASGSPGQTVTISCTGTSTPSGAYDYVSWYQQHPGKAPKLMIYQVSKRPSGVPDRFSGSKSGNTASLTVSGLQAEDEADYFCSTTNSAWDPDFGGGTKLTVLQ
notes: the text of the results names L3021
IC50 (read off the curve) (mPD1-G1CH2 [1]): ~0.8 µg/mL

B4: H0052-G4T1/L1083-lam1 (antibody, human IgG4 S228P, lambda, V domains shown)
VH: EVQLVESGGDLVKPGGGLRLSCAASGFTFSSYTMNWVRQAPGKGLEWVSSISSRSYHIYYADSVDGRFTISRDNAKNSLYLQMNSLRAEDTAVYYCARYGKLYSLNWVFDYWGQGTLVTVSS
VL: QSALTQPPSASGSPGQTVTISCTGTSTDVGDYAYVSWYQQHPGKAPKLMIYYVDKKPSGVPDRFSGSKSGNTASLTVSGLQAEDEADYFCSLRSPGPYPLFGGGTKLTVLG
Kd (hIL6R [2]): 50.5 nM
Kd (hIL6R [3]): 6640 nM
Kd (hIL6R [4]): 8.31 nM
Kd (hIL6R [5]): 1450 nM
Kd (hIL6R [7]): 118 nM
Kd (hIL6R [8]): 58.1 nM
Kd (hIL6R [9]): 10.1 nM

B5: H0002-G4T1/L1058-lam1 (antibody, human IgG4 S228P, lambda, V domains shown)
VH: EVQLVESGGDLVKPGGGLRLSCAASGFTFSSYTMNWVRQAPGKGLEWVSSISSRSYHAYYADSVKGRFTISRDNAKNSLYLQMNSLRAEDTAVYYCARYGKLYSLNWVFDYWGQGTLVTVSS
VL: QSALTQPPSASGSPGQTVTISCTGTSTDVGDYNYVSWYQQHPGKAPKLMIYEVVKKPSGVPDRFSGSKSGNTASLTVSGLQAEDEADYFCSLRSAGPYPLFGGGTKLTVLG
Kd (hIL6R [12]): 1160 nM

B6: H0041-G4T1/L1088-lam1 (antibody, human IgG4 S228P, lambda, V domains shown)
VH: EVQLVESGGDLVKPGGGLRLSCAASGFTFSSYTMNWVRQAPGKGLEWVSSISSQSYHIYYADSVKGRFTISRDNAKNSLYLQMNSLRAEDTAVYYCARYGKLYSLNWVFDYWGQGTLVTVSS
VL: QSALTQPPSASGSPGQTVTISCTGTSTDVGDYAYVSWYQQHPGKAPKLMIYYVSKKPDGVPDRFSGSKSGNTASLTVSGLQAEDEADYFCSLRSPGPYPLFGGGTKLTVLG
Kd (hIL6R [13]): 10300 nM
Kd (hIL6R [12]): 48.3 nM
Kd (hIL6R [14]): 320 nM
Kd (hIL6R [7]): 1810 nM
Kd (hIL6R [15]): 296 nM
Kd (hIL6R [16]): 2380 nM

More lines, now with the values ahead:

Kd (hIL6R [2]): 17.9 nM
Kd (hIL6R [3]): 5.33 nM
Kd (hIL6R [4]): 18 nM
Kd (hIL6R [5]): 18.8 nM
Kd (hIL6R [6]): 17 nM
Kd (hIL6R [7]): 5.46 nM
Kd (hIL6R [8]): 5.64 nM
Kd (hIL6R [9]): 5.96 nM
B2: MRAH-G4T1/MRAL-k0 (antibody, human IgG4 S228P, kappa, V domains shown)
VH: QVQLQESGPGLVRPSQTLSLTCTVSGYSITSDHAWSWVRQPPGRGLEWIGYISYSGITTYNPSLKSRVTMLRDTSKNQFSLRLSSVTAADTAVYYCARSLARTTAMDYWGQGSLVTVSS
VL: DIQMTQSPSSLSASVGDRVTITCRASQDISSYLNWYQQKPGKAPKLLIYYTSRLHSGVPSRFSGSGSGTDFTFTISSLQPEDIATYYCQQGNTLPYTFGQGTKVEIKR
notes: Non-switch control antibody

IC50 (read off the curve) (mPD1-G1CH2 [10]): ~0.6 µg/mL
IC50 (read off the curve) (mPD1-G1CH2 [11]): ~0.6 µg/mL
B3: mPD1F2VH-mF18/mPD1F2VL-mk1 (antibody, mouse IgG1, kappa, V domains shown)
VH: EVQLVQSGGGVVQPGRSLRLSCAASGFTFSSYWMSWVRQAPGKGLEWVSAISGSGGSTYYADSVKGRFTISRDNSKNTLYLQMNSLRAEDTAVYYCAKENWGSYFDLWGQGTTVTVSS
VL: DIVMTQSPSTLSASVGDRVTITCRASQGISSWLAWYQQKPGRAPKVLIYKASTLESGVPSRFSGSGSGTDFTLTISSLQPEDFATYYCQQSYSTPWTFGQGTKLEIKR
notes: Control anti-PD1 antibody; also called mPD1F2VH-mF18/mPD1F2VL-mkl

absorbance ratio (hCD137.2.4-F.G1d): 1.3
absorbance ratio (hCD137.3.4-F.G1d): 1.3
absorbance ratio (hCD137.2.3-F.G1d): 1.1
absorbance ratio [17]: 1.1
B7: dBBK054-P253 (antibody, human IgG1, kappa, V domains shown)
VH: QVQLVQSGAEVKKPGSSVKVSCKASGGWFSYYMISWVRQAPGQGLEWMGVIVPINGAAQYAQKFQGRVTITADESTSTAYMELSSLRSEDTAVYYCARDRPVWRTPRGAFDIWGQGTLVTVSS
VL: DIVMTQSPLSLPVTPGEPASISCRSSQSLVDSNMNTFLSWYLQKPGQSPQLLIYEIQHRFYGVPDRFSGSGSGTDFTLKISRVEAEDVGVYYCMQAMGFPRTFGQGTKVEIKR
